The results in this text go back to patent publication US20100136009A1 (DIADEXUS, published 2010).

In assay [1] the target is T1, native Ovr110 protein on tumor cells (ZR-75-1, SKBR3, RL95.2, OVCAR3) (human, UniProt Q7Z7D3 25-282).
T1 sequence (looked up): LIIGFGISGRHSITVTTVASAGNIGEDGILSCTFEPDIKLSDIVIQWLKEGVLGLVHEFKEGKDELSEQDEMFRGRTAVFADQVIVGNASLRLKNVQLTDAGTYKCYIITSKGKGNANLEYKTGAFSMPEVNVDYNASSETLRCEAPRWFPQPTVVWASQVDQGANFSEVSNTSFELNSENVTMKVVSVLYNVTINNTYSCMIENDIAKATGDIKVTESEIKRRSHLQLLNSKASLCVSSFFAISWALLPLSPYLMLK
Briefly: cell-based or functional assay.

Assay [2] deals with T1, native Ovr110 protein on tumor cells …. The assay is described as follows: cell-based or functional assay. This is another data set of the same source.
Assay [3] shares this target. The assay is described as follows: flow cytometry; purified MAb; SKBR3 cells. (In general: In flow cytometry, cells or beads pass a laser one at a time.)
Assay [4] shares this target. Briefly: flow cytometry; purified MAb; ZR-75-1 cells.
For assay [5] the target is unchanged. Briefly: flow cytometry; hybridoma supernatant; SKBR3 cells.
The target of assay [6] is T2, Ovr110 (amino acids 1-282; Ovr110 Construct 1 without the 6-His tag) expressed on transiently transfected … (human, UniProt Q7Z7D3 25-282).
T2 construct: signal peptide not removed here
T2 sequence: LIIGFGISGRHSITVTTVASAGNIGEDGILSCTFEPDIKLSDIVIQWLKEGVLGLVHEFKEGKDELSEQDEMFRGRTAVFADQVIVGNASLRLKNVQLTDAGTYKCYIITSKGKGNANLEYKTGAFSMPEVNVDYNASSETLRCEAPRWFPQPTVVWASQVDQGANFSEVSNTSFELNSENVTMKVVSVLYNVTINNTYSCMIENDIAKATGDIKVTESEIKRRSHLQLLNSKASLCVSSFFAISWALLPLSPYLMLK
The assay is described as follows: flow cytometry; purified MAb; Ovr110-transfected 293F cells.

In assay [7] the target is T2, Ovr110 (amino acids 1-282; Ovr110 …). The assay is described as follows: flow cytometry; hybridoma supernatant; Ovr110-transfected 293F cells.
The target of assay [8] is T1, native Ovr110 protein on tumor cells …. Briefly: flow cytometry titration of fluorescein-labeled MAb on ZR75-1 cells; one-site fit.
For assay [9], the target named is T3, recombinant Ovr110-hFc encoded by Ovr110 Construct 2 (human).
T3 construct: Captured on plates by goat anti-human IgG Fc; also called Ovr110-hFc (with TM)
T3 chain: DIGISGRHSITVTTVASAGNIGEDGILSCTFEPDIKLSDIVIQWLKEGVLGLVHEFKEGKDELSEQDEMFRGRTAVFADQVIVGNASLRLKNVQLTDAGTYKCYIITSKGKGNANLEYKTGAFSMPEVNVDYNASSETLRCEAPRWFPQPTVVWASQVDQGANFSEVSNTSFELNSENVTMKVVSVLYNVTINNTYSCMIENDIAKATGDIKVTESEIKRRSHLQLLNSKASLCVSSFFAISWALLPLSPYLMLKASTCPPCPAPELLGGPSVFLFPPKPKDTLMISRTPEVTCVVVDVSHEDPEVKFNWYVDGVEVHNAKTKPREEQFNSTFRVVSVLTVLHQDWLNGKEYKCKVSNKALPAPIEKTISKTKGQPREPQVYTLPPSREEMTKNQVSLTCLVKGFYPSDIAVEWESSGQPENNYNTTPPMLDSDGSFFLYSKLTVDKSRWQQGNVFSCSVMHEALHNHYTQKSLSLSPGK
Briefly: competition ELISA; row = unlabeled blocking MAb; competitor = biotinylated detecting MAb C6.3. For orientation: An ELISA detects its analyte on a solid surface through an enzyme-linked reagent.

Assay [10] addresses T3, recombinant Ovr110-hFc encoded by …. Briefly: competition ELISA; row = unlabeled blocking MAb; competitor = biotinylated detecting MAb Q3.1.
The target is the same in assay [11]. The assay is described as follows: competition ELISA; row = unlabeled blocking MAb; competitor = biotinylated detecting MAb A87.1.
For assay [12] the target is unchanged. Briefly: competition ELISA; row = unlabeled blocking MAb; competitor = biotinylated detecting MAb Q12.2.
The target is the same in assay [13]. The assay is described as follows: competition ELISA; row = unlabeled blocking MAb; competitor = biotinylated detecting MAb Q15.2.
Assay [14] has the same target. Briefly: competition ELISA; row = unlabeled blocking MAb; competitor = biotinylated detecting MAb Q19.6.
Assay [15] shares this target. Briefly: competition ELISA; row = unlabeled blocking MAb; competitor = biotinylated detecting MAb Q23.6.
For assay [16] the target is unchanged. Briefly: competition ELISA; row = unlabeled blocking MAb; competitor = biotinylated detecting MAb Q27.4.
Assay [17] has the same target. Briefly: competition ELISA; row = unlabeled blocking MAb; competitor = biotinylated detecting MAb Q11.12.3.

B1: Ovr110.Q27 (antibody, IgG1, V domains shown)
VH: QVQPQQSGAELARPGASVKLSCKASGYTFTTYWMQWVKQRPGQGLEWIGAIYPGDGDTRYTQKFKGKATLTADKSSSTAYMQLSSLASEDSAVYYCAINWGYAMDYWGQGTSVTVSS
VL: DIVLTQSHKIMSTSVGDRVSITCKASQDVRTAVAWYQQKPGQSPKLLIKSASYRYTGVPDRFSGSGSGTDFTFTISSVQAEDLAVYYCQQHYSNPTFGGGTKLEIKR
notes: Mouse hybridoma MAb; also called Q27.4; Q27.2
As for B1, the “Percentage growth compared to wells with media alone; ZR-75-1; MAb 0.4 ug/mL with 1.0 ug/mL mAb-ZAP” value in assay [1] is 60.6%. Moreover, the “Percentage growth compared to wells with media alone; ZR-75-1; MAb 2.0 ug/mL with 1.0 ug/mL mAb-ZAP” value in [1] was found to be 69.5%. Further, the “Percentage growth compared to wells with media alone; SKBR3; MAb 0.4 ug/mL with 1.0 ug/mL mAb-ZAP” value in assay [2] was determined as 68.9%. The “Percentage growth compared to wells with media alone; SKBR3; MAb 2.0 ug/mL with 1.0 ug/mL mAb-ZAP” value in assay [2] was found to be 73.6%. Moreover, the “% Cells Positive” value in [3] was found to be 94.8%; in assay [4], 93.3%; in assay [5] it was 87.7%; in [6], 95.2%; in assay [7] it was 91.8%. The MFI in assay [3] worked out at 3.9; in [4] it was 2.92; in assay [6], 5.48. The “Mean Fluorescence Intensity (MFI)” value turned out to be 1.48 in assay [5] and 6.09 in assay [7]. In assay [8], the dissociation constant Kd came out at 4.76 nM. The signal/noise ratio in [9] stood at 1.2; in [10], 1.4; in [11], 6.7; in [12] it was 3.1; in assay [13] it was 11.8; in [14], 6.5. Besides, the signal/noise ratio came out at 1 in [15], 1 in [16] and 5.5 in [17].

Broadly, the Kd is the concentration at which binding is half-saturated. The low end stands for higher affinity, the high end for lower affinity.
